Patent US20230002492A1 (SIMCERE SHANGHAI PHARMACEUTICAL, published 2023)
Numbering of substitutions follows the chain as printed.

B1: PDL1-50 (antibody, V domains shown)
VH: EVQLQESGGDLVKPGGSLKLSCAASGFTFNTYGMSWVRQTPDKRLEWVATLSSGGSYTYYSESVKGRFTISRDNAKNTLYLQMTSLKSEDTAIYYCARPTADWHLDVWGTGTTVTVSS
VL: DIQMTQSPSSLSASLGGKVTITCKASQDINKYIAWYQHKPGKGPRLLIHYTSTLQPGIPSRFSGSGSGRDYSFSISNLEPEDIATYYCLQHDNLLFTFGSGTKLEIK
B2: PDL1-90 (antibody, V domains shown)
VH: B1 VH with A23T, N30S, L51V, S61P, E62D, T84S
VL: B1 VL with S7T, K31R, R45S
B3: PDL1-34 (antibody, V domains shown)
VH: B1 VH with T84N
VL: B1 VL with Q3L, K24N, R45S
B4: 156-11H (antibody, V domains shown)
VH: QVQLVQSGPELKKPGASVKISCKASGYTFTDYYMNWVRQAPGQSLEWIGDIWPNNGDTSYNQKFKGRVTLTRDTSTSTVYMELRSLRSEDTAVYYCARSVMDYWGQGTLVTVSS
VL: EIVLTQSPALLSLSPGERVTLSCSASSSVNYVYWYQQKPGQAPRPLIYLTFNLASGIPARFSGSGSGTDFTLTISSLEPEDFAVYYCQQWSVNPLTFGGGTKVEIK
B5: 156-1H (antibody, V domains shown)
VH: B4 VH with S59W
VL: B4 VL
B6: 156-10H (antibody, V domains shown)
VH: B4 VH with D102S, Y103D
VL: B4 VL with V92S
B7: 156-7H (antibody, V domains shown)
VH: B4 VH with Y103T
VL: B4 VL
B8: PDL1-370 (antibody, V domains shown)
VH: EVQLQESGPGLAKPSQTLSLTCSVTGYSITSDYWNWIRKFPGNKLEYMGYISYTGSTYYNPSLKSRISIARDTSRNQYYLQLNSVTTEDSATYYCARAGGWLLPFAVWGTGTTVTVSS
VL: DIVITQSPSSLAVSVGEKVTMSCKSSQSLLYSSNQQNSLAWYQQKPGQSPILLIYWASTRESGVPDRFTGGGSGTDFTLTISSVRAEDLAVYYCQQYYNYPWTFGGGTKLEIK
B9: PDL1-413 (antibody, V domains shown)
VH: B8 VH with N83K, S90T
VL: B8 VL with I4M, G71S, N99S
B10: PDL1-156 (antibody, V domains shown)
VH: EVQLQESGPELVKPGASVKISCKASGYTFTDYYMNWVRQSHGKSLEWIGDINPNNGDTSYNQKFKGKATLTVDKSSSTAYMDLRSLTSEDSAVYYCASSVMDYWGQGTTVTVSS
VL: DIVLTQSPALMSASPGEKVTMTCSASSSVNYVYWYQQKPRSSPKPWIYLTFNLASGVPARFSGSGSGTSYSLTISSMEAEDAATYYCQQWSSNPLTFGAGTKLEIK
B11: PDL1-373 (antibody, V domains shown)
VH: EVQLQESGGGLVKPGGSLKLSCAASGFTFSDYGMHWVRQAPEKGLEWVAYISSGSSTIYYADTVKGRFTISRDNAKNTLFLQMTSLRSEDTAMYYCARRNFGSSYDYWGQGTTVTVSS
VL: EIVMTQSHKFMSTSVGDRVSITCKASQDVDTPVAWYQQKPGQSPRLLIYWASIRHTGVPDRFTGSGSGTDFTLTISNVQSEDLADYFCQQYSSYPLTFGSGTKLEIK
B12: PDL1-794 (antibody, V domains shown)
VH: EVQLQESGPSLVKPSQTLSLTCSVTGDSITSGYWNWIRKFPGNKLEYMGYISYSGSTYYNPFLKSRISITRDTSKNQYYLQLNSVTTEDTATYYCAKMGDWLAWFAYWGQGTTVTVSS
VL: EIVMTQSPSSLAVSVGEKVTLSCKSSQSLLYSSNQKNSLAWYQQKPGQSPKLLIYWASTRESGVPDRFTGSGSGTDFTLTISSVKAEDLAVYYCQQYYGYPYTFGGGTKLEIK
B13: PDL1-130 (antibody, V domains shown)
VH: EVQLQESGPGLAKPSQTLSLTCSVTGYSITSDYWNWIRKFPGNKLEYVGYISYTGSTYYNPSLRSRISITRDTSKNQYYLQLNSVTAEDTATYYCARCPGWLNAMDYWGQGTTVTVSS
VL: DILMTQSPSSLAVSVGEKVTLSCKSSQSLLYSNNQKNSLAWYQQKPGQSPKLLIYWASTGESGVPDRFTGSGSGTDFTLTISSVKAEDLAVYYCQQYYGYPFTFGAGTKLEIK

Key:
[1] = biological target: T1, recombinant human PD-L1-His (Novoprotein, Cat. 315) (human, UniProt Q9NZQ7 19-239); assay: SPR, Biacore T200, antibody captured, PD-L1-His injected, 1:1 model, 25 C
T1 construct: Bought protein; also called human PD-L1 recombinant protein; human PDL1 protein; not shown: His tag
T1 sequence (Q9NZQ7 19-239 limits assumed): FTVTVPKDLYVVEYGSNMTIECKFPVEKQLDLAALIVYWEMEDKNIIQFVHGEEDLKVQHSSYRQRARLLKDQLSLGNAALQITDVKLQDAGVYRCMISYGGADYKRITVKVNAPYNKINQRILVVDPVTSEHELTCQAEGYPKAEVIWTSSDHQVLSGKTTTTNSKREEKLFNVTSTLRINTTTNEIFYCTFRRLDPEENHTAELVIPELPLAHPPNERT
Protocol: (§1) Biacore T200 (GE Healthcare) was used to determine binding affinity of the PD-L1 antibody to the human and cynomolgus monkey PD-L1-His proteins. Anti-human IgG Fc (Genway, Cat. GWB-20A705) was immobilized on CM5 chip (GE Healthcare, Cat. BR-1005-30) at 25° C. Anti-human Fc (Genway, Cat. GWB-20A705) was diluted to […] with Acetate pH5.0 (GE Healthcare, BR-1003-51). The Amine method in the Immobilization method was used to immobilize. Alternatively, a commercially available Protein A (GE Healthcare, Cat. 29127556) chip was used for detection. […] In each cycle, the antibody to be tested was captured on the fixed CM5 chip, then injected with recombinant human PD-L1-His (Novoprotein, Cat. 315) and cynomolgus monkey PD-L1-His protein (Sino Biological, Cat. 90251-CO8H), and finally regenerated with Glycine pH1.5. The mobile phase was HBS-EP+Buffer (GE Healthcare, Cat. BR-1006-69), the flow rate was 30 μL/min, and the binding time was 300 seconds. The regeneration flow rate was 30 μL/min and the time was 30 seconds. Using Biacore T200 evaluation software (version 3.0), a 1:1 binding model was used to analyze the experimental data, fit the equilibrium dissociation constant KD of the antibody and antigen, and determine the binding rate constant Ka and dissociation rate constant Kd.

[2] = biological target: T2, cynomolgus monkey PD-L1-His protein (Sino Biological, Cat. 90251-CO8H) (cynomolgus monkey, UniProt G7PSE7 19-238); assay: as above
T2 construct: Bought protein; also called cynomolgus monkey PD-L1 recombinant protein
T2 sequence (G7PSE7 entry or part of it limits assumed): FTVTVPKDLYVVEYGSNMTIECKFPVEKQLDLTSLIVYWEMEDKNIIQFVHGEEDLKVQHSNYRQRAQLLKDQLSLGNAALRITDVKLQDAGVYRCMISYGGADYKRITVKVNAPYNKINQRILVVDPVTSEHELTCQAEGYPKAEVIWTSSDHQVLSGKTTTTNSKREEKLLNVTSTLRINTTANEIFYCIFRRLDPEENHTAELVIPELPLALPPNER
Protocol: as §1

[3] = biological target: T3, PD-L1 on the surface of CHO-PD-L1 cells (UniProt Q9NZQ7 19-290, limits assumed); assay: flow cytometry on CHO-PD-L1 cells, anti-human IgG PE, MFI fold, ng/ml is the unit of the concentration axis
T3 construct: whole, on cells; also called CHO-PD-L1 cells (Nanjing Yongshan Biotechnology); CHO cell line (GenScript, Cat. M00613) stably transfected with PD-L1
T3 sequence (Q9NZQ7 19-290 limits assumed): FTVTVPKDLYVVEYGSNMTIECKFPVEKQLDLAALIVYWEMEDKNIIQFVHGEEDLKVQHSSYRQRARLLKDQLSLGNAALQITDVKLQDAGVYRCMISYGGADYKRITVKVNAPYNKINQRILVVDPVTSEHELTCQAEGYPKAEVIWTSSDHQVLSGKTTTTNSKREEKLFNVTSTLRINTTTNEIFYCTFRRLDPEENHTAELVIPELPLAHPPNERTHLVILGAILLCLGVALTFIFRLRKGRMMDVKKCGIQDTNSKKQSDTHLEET
Protocol: (§2) A gradient concentration of antibodies to be detected (final concentration of antibody: 10000 ng/ml-0.1 ng/ml, 10-foldserial dilution) were incubated with CHO-PD-L1 cells (Nanjing Yongshan Biotechnology Co., Ltd., 10⁵ cells/well) with high expression of PD-L1 on the cell surface at 4° C. ° C. for 30min. After incubation, 1:250 diluted anti-human IgG PE fluorescent antibody (eBioscience, Cat. 12-4998-8) was added, and incubated at 4° C. for 30 min. The fluorescent antibody specifically bound to the Fc fragment of the antibody to be detected. The fluorescent intensity of PE was detected by FACS, and the ability of the antibody to be detected to bind to PD-L1 protein highly expressed on the cell surface was analyzed. […] MFI fold=MFI value of the experimental group/MFI value of the control group without drugs.

[4] = biological target: T4, recombinant human PD-L1 protein (Sino Biological, Cat. 10084-H05H) (human, UniProt Q9NZQ7 19-239); assay: competitive ELISA: coated human PD-L1 protein, antibody titrated together with human PD-1-His, bound PD-1-His detected with HRP anti-His
T4 construct: also called PD-L1-mFc; human PD-L1 protein fused with mouse Fc
T4 sequence (Q9NZQ7 19-239 limits assumed): as the sequence (Q9NZQ7 19-239 limits assumed) above
Protocol: (§3) The recombinant human PD-L1 protein (Sino Biological, Cat. 10084-H05H) was diluted with carbonate buffer and added to a 96-well plate at a final concentration of […]. […] Then HRP-labeled anti-His tag antibody (MBL, Cat. D291-7) was added, and color development was performed with TMB. After termination with 1M sulfuric acid, OD values (dual wavelength 450 nm-630 nm) were read. The competitive binding curve of the test antibody can be drawn by matching the antibody concentration with the OD value to calculate the IC50 value.

[5] = biological target: T3, PD-L1 on the surface of CHO-PD-L1 cells; assay: cell-based or functional assay
[6] = biological target: T3, PD-L1 on the surface of CHO-PD-L1 cells; assay: flow cytometry on CHO-PD-L1 cells, anti-human IgG PE
Protocol: as §2

[7] = biological target: T4, recombinant human PD-L1 protein (Sino …); assay: competitive ELISA: PD-L1 coated, antibody titrated against PD-1-His, anti-His-HRP
Protocol: as §3

[8] = biological target: T1, recombinant human PD-L1-His …; assay: SPR, Biacore T200, antibody captured, human PD-L1-His injected, 1:1 model, 25 C
Protocol: as §1

[9] = biological target: T4, recombinant human PD-L1 protein (Sino …); assay: competitive ELISA: coated human PD-L1 protein, antibody titrated together with human PD-1-His, bound PD-1-His detected with HRP anti-His; panel A experiment (the text prints only the panel B value)
Protocol: as §3

Binder	Kd [1] [nM]	Kd [2] [nM]	EC50 [3] [µg/mL]	IC50 [4] [µg/mL]	EC50 of NFAT luminescence reporter gene (RLU), Jurkat-PD-1 / CHO-PD-L1 co-culture [5] [µg/mL]	EC50 [6] [µg/mL]	IC50 [7] [µg/mL]	Kd [8] [nM]	koff [8] [s⁻¹]	kon [8] [M⁻¹ s⁻¹]	IC50 [9] [µg/mL]
B1	0.699	33.1	0.113	0.294							
B2	0.87	62.5	0.119	0.259							
B3	0.458	5.43	0.113	0.276							
B4					0.282	0.05	0.207	0.336	0.000193	574000	
B5					0.342	0.0494	0.197	0.458	0.000227	494000	
B6					0.357	0.0635	0.25	0.224	0.000133	595000	
B7					0.314	0.0784	0.231	0.348	0.00018	518000	
B8	2.42	2.18		0.156							
B9	2.09	2.76		0.184							
B10	0.291	0.375	0.0235				0.221	0.291	0.000233	802000	0.14
B11	2.45	3.64	0.0633	0.12							
B12	1.25	0.883		0.191							
B13	2.18	1.95	0.0646	0.225							
